# Source: the supplement of paper PMC10126150
# ± gives the standard deviation of the averaged measurements.
# Tested on: ATP
# Assay: switch fluorescence ratio, 500 uM ATP over buffer (Cy3 cluster intensity, sum of 5 cycles each) (fold (ratio)); higher = stronger signal-on switching upon ATP binding; sequences stand for … in TCGTCGGCAGCGTCAGATGTGTATAAGAGACAGTTTTTTTTTTTTTTTTTTTTTTTTT…TC
# Settings: aptamer strand: ATP DNA aptamer (quencher-CACCTGGGGGAGTATTGCGGAGGAAGG + anchor), 100 nM annealed; ATP concentration: 500 uM
# Outline: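 Cy3-labelled switching-strand clusters on a modified Illumina MiSeq flow-cell were annealed to 100 nM quencher-labelled ATP aptamer, imaged in selection buffer, then imaged after 15 min with 500 uM ATP at 22 °C. Five buffer/ATP cycles ran, with NaOH stripping and re-annealing between them. The fluorescence ratio is summed target-cycle over summed buffer-cycle Cy3 intensity per cluster, averaged per switch-domain sequence. Clusters outside 100-1000 RFU were excluded.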
# 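Note: ATP exposure 15 min at 22 °C before imaging.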
row,Sequence,switch fluorescence ratio
1,TCAGTGGGGC,0.9987 ± 0.0093
2,TCAGTGGGGT,1.004 ± 0.0072
3,TCAGTTGTGC,1.01 ± 0.042
4,TCAGTTTACG,0.988 ± 0.019
5,TCAGTTTGTT,0.997 ± 0.023
6,TCAGTTTTCT,1.01 ± 0.057
7,TCATAAATTT,1.01 ± 0.018
8,TCATAACTGC,1.02 ± 0.029
9,TCATAATTAG,1 ± 0.0068
10,TCATAATTGA,0.99 ± 0.012
11,TCATACCGTA,1.09 ± 0.022
12,TCATACGGGG,1.01 ± 0.023
13,TCATAGATCG,1.01 ± 0.027
14,TCATAGTACG,1.02 ± 0.043
15,TCATAGTGTT,1.01 ± 0.04
16,TCATATTATG,1.02 ± 0.034
17,TCATATTATT,1 ± 0.033
18,TCATCAGCAG,2.96 ± 1.7
19,TCATCTAGGA,0.985 ± 0.011
20,TCATCTGCTG,1.17 ± 0.087
21,TCATGAGATT,1.02 ± 0.021
22,TCATGCAAAT,1.04 ± 0.031
23,TCATGGAATT,1 ± 0.031
24,TCATGGACTG,1.06 ± 0.02
25,TCATGGATCC,1.01 ± 0.035

row,Sequence,switch fluorescence ratio
1,TCATGGGTAA,1.01 ± 0.029
2,TCATGGGTGG,0.99 ± 0.02
3,TCATGGGTTG,0.981 ± 0.0053
4,TCATGGTGAT,1.022 ± 0.0013
5,TCATGGTTTA,1.01 ± 0.016
6,TCATGTAAGA,0.998 ± 0.024
7,TCATGTATGG,0.977 ± 0.012
8,TCATGTTAGG,0.994 ± 0.0075
9,TCATGTTCGG,1.02 ± 0.034
10,TCATTAATAT,1.16 ± 0.22
11,TCATTAGAGG,0.9942 ± 0.0067
12,TCATTCCACT,1.031 ± 0.0059
13,TCATTGGGAA,1.01 ± 0.021
14,TCATTGGTTT,0.998 ± 0.032
15,TCATTTACAT,1.04 ± 0.037
16,TCATTTCGCC,1.071 ± 0.0047
17,TCATTTCGGG,0.991 ± 0.038
18,TCATTTGATA,1.03 ± 0.035
19,TCCAAGGGGG,1.024 ± 0.0066
20,TCCAAGGGTA,0.997 ± 0.025
21,TCCAAGTCGA,1.041 ± 0.0033
22,TCCAATCATG,0.9765 ± 0.0095
23,TCCACCGGCT,1.03 ± 0.052
24,TCCACCGTCG,1.27 ± 0.065
25,TCCACCGTTC,1.66 ± 0.77

row,Sequence,switch fluorescence ratio
1,TCCACGGGG,1.12 ± 0.057
2,TCCAGAACCC,1 ± 0.011
3,TCCAGGAATT,1 ± 0.016
4,TCCAGGGCG,1.03 ± 0.029
5,TCCAGGGTCA,1.01 ± 0.025
6,TCCAGGTCGG,1.2 ± 0.025
7,TCCATAGTCG,1.03 ± 0.014
8,TCCATGTTGA,1.03 ± 0.019
9,TCCATTAAAA,0.976 ± 0.036
10,TCCATTAGTT,1.04 ± 0.069
11,TCCATTCCGA,1.17 ± 0.13
12,TCCATTTTCG,0.984 ± 0.025
13,TCCCAAACAT,1.06 ± 0.009
14,TCCCAAATTT,0.983 ± 0.032
15,TCCCATAAGC,1.099 ± 0.0051
16,TCCCATGGCG,1.04 ± 0.062
17,TCCCCATGGC,1.35 ± 0.1
18,TCCCGGGTAT,0.9787 ± 0.0073
19,TCCCGGTTTG,1.009 ± 0.01
20,TCCCGTAAGT,1.05 ± 0.069
21,TCCCTTTTGG,1.011 ± 0.0029
22,TCCGAGGGAG,1.05 ± 0.079
23,TCCGAGTATG,1.08 ± 0.027
24,TCCGATTGGG,0.9801 ± 0.0071
25,TCCGCCATGG,2.71 ± 0.28

row,Sequence,switch fluorescence ratio
1,TCCGCGACGG,1.4 ± 0.2
2,TCCGCGGTTT,1.23 ± 0.18
3,TCCGGACCGG,0.995 ± 0.019
4,TCCGGACCTC,1.5 ± 0.34
5,TCCGGCGGGA,1.26 ± 0.32
6,TCCGGCTGAG,1.02 ± 0.012
7,TCCGGGTATC,1.33 ± 0.04
8,TCCGGGTGGG,1.09 ± 0.079
9,TCCGGGTTTT,0.963 ± 0.019
10,TCCGGTGTG,0.97 ± 0.015
11,TCCGGTTTTA,0.981 ± 0.02
12,TCCGGTTTTG,0.979 ± 0.013
13,TCCGTCAGCA,4.04 ± 0.52
14,TCCGTGAGTG,1.07 ± 0.031
15,TCCGTTTGTT,0.991 ± 0.04
16,TCCGTTTTGG,1.03 ± 0.066
17,TCCGTTTTTT,1.04 ± 0.063
18,TCCTAATGGG,0.985 ± 0.025
19,TCCTACTGTA,1.1974 ± 0.00047
20,TCCTACTGTT,0.9957 ± 0.0061
21,TCCTAGAAC,0.997 ± 0.026
22,TCCTAGGGGG,1 ± 0.026
23,TCCTCATGGT,1 ± 0.022
24,TCCTCCGTGG,2.56 ± 0.59
25,TCCTGACGTA,1.11 ± 0.022
